Measurements: article PMC3942355, “Unraveling Regulation of the Small Heat Shock Proteins by the Heat Shock Factor HvHsfB2c in Barley: Its Implications in Drought Stress Response and Seed Development”

Target: HvHsfB2c (Hordeum vulgare (barley) cv. Golden …, UniProt F4ZC69 1-362)
Assay: EMSA; 100 ng poly(dI-dC); EMSA as described previously (ref 24), with 100 ng poly(dI-dC); buffer, salt, pH and temperature not given
Conditions: protein: ivt; chain copies: 3; 5' overhang 4 nt (TCGA) on both strands, 40 bp duplex

Chain of HvHsfB2c (F4ZC69 entry or part of it): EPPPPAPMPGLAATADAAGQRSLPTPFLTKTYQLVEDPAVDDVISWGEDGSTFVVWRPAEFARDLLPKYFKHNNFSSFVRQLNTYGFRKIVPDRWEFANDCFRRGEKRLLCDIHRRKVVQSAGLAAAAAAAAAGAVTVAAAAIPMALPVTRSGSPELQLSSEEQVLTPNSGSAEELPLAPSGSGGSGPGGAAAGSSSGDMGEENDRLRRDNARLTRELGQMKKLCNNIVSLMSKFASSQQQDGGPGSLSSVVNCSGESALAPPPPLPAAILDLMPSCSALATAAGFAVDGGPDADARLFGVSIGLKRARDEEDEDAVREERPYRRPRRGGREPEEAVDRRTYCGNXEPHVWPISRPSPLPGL

B1: HSE-box fragment of HvsHsp17.5-CI promoter (HSE-1/HSE-2) (dsDNA)
DNA 1: TCGAACAACCCAAAATCCAAAAAATTCCACAACCCCAAAAAGGC
DNA 2: TCGAGCCTTTTTGGGGTTGTGGAATTTTTTGGATTTTGGGTTGT
binding result: binds
